In IntAct's records for PubMed 19937093:

B1: TNF receptor-associated factor 4 (Homo sapiens), Q9BUZ4 (parent)
chain: MPGFDYKFLEKPKRRLLCPLCGKPMREPVQVSTCGHRFCDTCLQEFLSEGVFKCPEDQLPLDYAKIYPDPELEVQVLGLPIRCIHSEEGCRWSGPLRHLQGHLNTCSFNVIPCPNRCPMKLSRRDLPAHLQHDCPKRRLKCEFCGCDFSGEAYESHEGMCPQESVYCENKCGARMMRRLLAQHATSECPKRTQPCTYCTKEFVFDTIQSHQYQCPRLPVACPNQCGVGTVAREDLPGHLKDSCNTALVLCPFKDSGCKHRCPKLAMARHVEESVKPHLAMMCALVSRQRQELQELRRELEELSVGSDGVLIWKIGSYGRRLQEAKAKPNLECFSPAFYTHKYGYKLQVSAFLNGNGSGEGTHLSLYIRVLPGAFDNLLEWPFARRVTFSLLDQSDPGLAKPQHVTETFHPDPNWKNFQKPGTWRGSLDESSLGFGYPKFISHQDIRKRNYVRDDAVFIRAAVELPRKILS

Variants of: B1
Details: with SMURF1, Q9HCE7-2
Chain of SMURF1, Q9HCE7-2 (Q9HCE7 other isoform, or with tags, fused parts or gaps): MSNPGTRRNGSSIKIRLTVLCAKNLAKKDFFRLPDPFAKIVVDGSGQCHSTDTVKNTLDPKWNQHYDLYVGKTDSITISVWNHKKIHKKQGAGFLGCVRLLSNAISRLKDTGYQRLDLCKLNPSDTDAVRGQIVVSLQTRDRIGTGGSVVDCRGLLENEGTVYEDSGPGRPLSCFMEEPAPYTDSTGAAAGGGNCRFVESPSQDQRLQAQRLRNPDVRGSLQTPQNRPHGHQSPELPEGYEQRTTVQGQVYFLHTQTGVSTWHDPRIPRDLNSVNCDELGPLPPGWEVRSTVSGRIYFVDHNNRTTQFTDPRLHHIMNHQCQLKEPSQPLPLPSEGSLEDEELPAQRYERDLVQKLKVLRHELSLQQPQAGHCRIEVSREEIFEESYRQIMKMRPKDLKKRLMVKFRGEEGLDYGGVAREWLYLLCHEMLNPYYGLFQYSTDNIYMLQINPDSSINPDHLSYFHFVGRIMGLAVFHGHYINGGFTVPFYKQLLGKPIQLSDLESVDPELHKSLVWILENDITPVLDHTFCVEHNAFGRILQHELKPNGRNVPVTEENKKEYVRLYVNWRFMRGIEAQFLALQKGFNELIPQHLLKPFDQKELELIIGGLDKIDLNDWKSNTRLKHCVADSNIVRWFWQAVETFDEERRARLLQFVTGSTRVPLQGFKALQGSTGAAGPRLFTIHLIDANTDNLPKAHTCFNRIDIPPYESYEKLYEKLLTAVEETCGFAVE

Variant | effect of a mutation on the interaction
MPGFDYKFLEKPKRRLLCPLCGKPMREPVQVSTCGHRFCDTCLQEFLSEGVFKCPEDQLAAAAAKIYPDPELEVQVLGLPIRCIHSEEGCRWSGPLRHLQGHLNTCSFNVIPCPNRCPMKLSRRDLPAHLQHDCPKRRLKCEFCGCDFSGEAYESHEGMCPQESVYCENKCGARMMRRLLAQHATSECPKRTQAAAACTKEFVFDTIQSHQYQCPRLPVACPNQCGVGTVAREDLPGHLKDSCNTALVLCPFKDSGCKHRCPKLAMARHVEESVKPHLAMMCALVSRQRQELQELRRELEELSVGSDGVLIWKIGSYGRRLQEAKAKPNLECFSAAAATHKYGYKLQVSAFLNGNGSGEGTHLSLYIRVLPGAFDNLLEWPFARRVTFSLLDQSDPGLAKPQHVTETFHPDPNWKNFQKPGTWRGSLDESSLGFGYPKFISHQDIRKRNYVRDDAVFIRAAVELPRKILS [P60A;L61A;D62A;Y63A;P194A;C195A;T196A;Y197A;P335A;F337A;Y338A] | disrupting interaction
